In general, Kd refers to the free concentration of one partner at which half of the binding sites on the other are occupied at equilibrium, for simple one-to-one binding. Low values mean higher affinity, high ones lower affinity.

Common to all, as to experiment: Kd (EC50 corrected by depletion factor)
The target in data set [1] is T1, NONO (UniProt Q15233).
T1 sequence: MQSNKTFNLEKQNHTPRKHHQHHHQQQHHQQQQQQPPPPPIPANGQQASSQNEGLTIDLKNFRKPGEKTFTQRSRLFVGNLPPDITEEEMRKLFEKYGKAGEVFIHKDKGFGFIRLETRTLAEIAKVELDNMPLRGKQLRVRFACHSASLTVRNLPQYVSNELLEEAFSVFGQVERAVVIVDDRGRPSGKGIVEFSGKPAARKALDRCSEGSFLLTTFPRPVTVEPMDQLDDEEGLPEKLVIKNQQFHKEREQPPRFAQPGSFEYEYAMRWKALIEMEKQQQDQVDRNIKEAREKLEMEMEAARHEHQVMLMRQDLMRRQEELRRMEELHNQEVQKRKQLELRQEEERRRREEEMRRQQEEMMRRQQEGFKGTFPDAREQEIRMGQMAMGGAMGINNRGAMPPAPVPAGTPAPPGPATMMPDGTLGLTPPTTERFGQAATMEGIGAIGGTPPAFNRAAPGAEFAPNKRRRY
The method in brief:
(§1)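 HEK293-FT lysate (2.5 mg protein/well) was treated with free RNA oligos (0 nM to 30 μM) for 1 h at 4°C, then with the same oligos on NHS-Sepharose beads for 30 min at 4°C. Bound proteins were quantified by label-free LC-MS/MS relative to the control. EC50 came from a four-parameter log-logistic fit, and Kd is EC50 times a protein-dependent depletion factor.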

For data set [2], the target named is T2, PINX1 (UniProt Q96BK5).
T2 sequence: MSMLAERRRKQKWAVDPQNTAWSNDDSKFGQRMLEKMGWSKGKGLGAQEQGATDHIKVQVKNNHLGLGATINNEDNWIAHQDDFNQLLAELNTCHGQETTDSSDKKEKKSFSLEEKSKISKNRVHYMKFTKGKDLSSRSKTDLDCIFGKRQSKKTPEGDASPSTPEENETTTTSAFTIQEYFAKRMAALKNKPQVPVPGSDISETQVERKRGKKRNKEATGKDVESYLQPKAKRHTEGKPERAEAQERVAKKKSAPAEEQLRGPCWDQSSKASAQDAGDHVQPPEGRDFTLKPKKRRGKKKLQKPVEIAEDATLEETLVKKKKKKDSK
The procedure, abridged: as §1

In data set [3] the target is T3, SF3B3 (UniProt Q15393).
T3 sequence: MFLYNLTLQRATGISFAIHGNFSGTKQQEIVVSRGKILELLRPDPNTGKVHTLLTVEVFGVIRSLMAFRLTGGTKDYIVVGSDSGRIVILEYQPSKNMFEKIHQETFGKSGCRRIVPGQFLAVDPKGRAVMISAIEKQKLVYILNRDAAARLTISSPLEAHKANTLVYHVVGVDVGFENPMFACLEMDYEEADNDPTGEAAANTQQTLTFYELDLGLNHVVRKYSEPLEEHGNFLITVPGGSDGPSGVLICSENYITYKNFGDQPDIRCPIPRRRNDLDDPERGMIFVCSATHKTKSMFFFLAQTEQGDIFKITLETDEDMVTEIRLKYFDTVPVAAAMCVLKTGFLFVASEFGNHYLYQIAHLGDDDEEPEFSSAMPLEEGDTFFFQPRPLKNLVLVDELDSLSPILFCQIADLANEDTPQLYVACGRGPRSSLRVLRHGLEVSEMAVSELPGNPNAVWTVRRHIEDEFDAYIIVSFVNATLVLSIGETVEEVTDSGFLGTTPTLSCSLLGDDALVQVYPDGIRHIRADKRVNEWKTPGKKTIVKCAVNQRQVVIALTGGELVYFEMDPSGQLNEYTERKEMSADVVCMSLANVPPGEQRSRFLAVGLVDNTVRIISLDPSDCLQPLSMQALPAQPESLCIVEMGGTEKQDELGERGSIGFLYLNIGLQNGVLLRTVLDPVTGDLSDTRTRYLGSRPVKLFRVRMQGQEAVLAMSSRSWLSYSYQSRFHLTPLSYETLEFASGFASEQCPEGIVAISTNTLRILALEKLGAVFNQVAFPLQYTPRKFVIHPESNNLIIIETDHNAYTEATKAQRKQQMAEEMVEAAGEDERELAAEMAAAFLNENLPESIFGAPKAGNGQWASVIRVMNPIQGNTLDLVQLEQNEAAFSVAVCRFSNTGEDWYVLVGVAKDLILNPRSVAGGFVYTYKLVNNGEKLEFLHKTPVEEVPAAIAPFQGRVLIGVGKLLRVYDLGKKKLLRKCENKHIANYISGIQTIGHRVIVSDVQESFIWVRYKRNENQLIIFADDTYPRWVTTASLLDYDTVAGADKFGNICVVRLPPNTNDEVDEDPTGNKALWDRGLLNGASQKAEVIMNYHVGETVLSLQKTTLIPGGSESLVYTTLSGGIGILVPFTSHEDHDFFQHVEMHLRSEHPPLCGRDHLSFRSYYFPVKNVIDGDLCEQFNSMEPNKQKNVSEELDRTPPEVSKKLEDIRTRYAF
The method in brief:
as §1

The target in data set [4] is MRPL19 (UniProt P49406). The method in brief:
as §1

Data set [5] addresses RPS14 (UniProt P62263). The procedure, abridged: as §1

AAUAAA: the Kd in data set [1] stood at 0.305 nM; in data set [2], 360 nM; in data set [3], 669 nM.
As to CUGUCCU, the figures for the Kd in data set [4] and in data set [5] were 54.1 nM and 126 nM, respectively.
